Substitutions are numbered along the chain they refer to.
The binders below were run against ARHGEF12, Q9NZN5-2 (assay: holdup assay). Details: plain residues with an end cap or a label only (N-terminal biotin on a linker: ado-ado).
Chain of ARHGEF12, Q9NZN5-2 (Q9NZN5 other isoform, or with tags, fused parts or gaps): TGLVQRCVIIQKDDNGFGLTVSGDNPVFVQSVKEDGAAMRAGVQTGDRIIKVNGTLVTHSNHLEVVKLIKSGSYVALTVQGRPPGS
Parameters: key: below the threshold = too weak to quantify, mostly under pKd 3.1 to 4
TFSRRPKTRV [CD226, Q15762] showed a pKd of 3.93.

What follows are binders tested against DLG1_2, Q12959 (assay: holdup assay). Details: plain residues with an end cap or a label only (N-terminal biotin on a linker: ado-ado).
Chain of DLG1_2, Q12959 (Q12959 314-412): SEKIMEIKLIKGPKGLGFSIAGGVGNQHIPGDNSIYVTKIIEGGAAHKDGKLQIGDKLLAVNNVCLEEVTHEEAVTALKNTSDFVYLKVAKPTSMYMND
Parameters: key: below the threshold = too weak to quantify, mostly under pKd 3.1 to 4
For TFSRRPKTRV [CD226, Q15762], the pKd was “below the threshold”.

The binders below were run against T1, DLG3_1, Q92796 (assay: holdup assay). Details: plain residues with an end cap or a label only (N-terminal biotin on a linker: ado-ado).
T1 sequence (Q92796 125-227, limits assumed, looked up): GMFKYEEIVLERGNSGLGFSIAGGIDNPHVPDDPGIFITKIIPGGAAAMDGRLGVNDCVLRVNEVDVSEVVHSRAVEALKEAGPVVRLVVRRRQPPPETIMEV
Parameters: key: below the threshold = too weak to quantify, mostly under pKd 3.1 to 4
For TFSRRPKTRV [CD226, Q15762], the pKd was “below the threshold”.

These binders were tested against T2, DLG3_3, Q92796 (assay: holdup assay). Details: plain residues with an end cap or a label only (N-terminal biotin on a linker: ado-ado).
T2 sequence (Q92796 374-475, limits assumed, looked up): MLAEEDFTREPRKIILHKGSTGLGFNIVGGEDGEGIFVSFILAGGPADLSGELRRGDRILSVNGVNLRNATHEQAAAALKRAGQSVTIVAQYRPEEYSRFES
Parameters: key: below the threshold = too weak to quantify, mostly under pKd 3.1 to 4
In the case of TFSRRPKTRV [CD226, Q15762], the pKd is reported as 3.81.

What follows are binders tested against DLG5_1, Q8TDM6 (assay: holdup assay). Details: plain residues with an end cap or a label only (N-terminal biotin on a linker: ado-ado).
Chain of DLG5_1, Q8TDM6 (Q8TDM6 617-713): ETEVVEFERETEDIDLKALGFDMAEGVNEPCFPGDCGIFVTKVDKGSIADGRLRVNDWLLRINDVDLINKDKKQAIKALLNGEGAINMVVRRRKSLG
Parameters: key: below the threshold = too weak to quantify, mostly under pKd 3.1 to 4
In the case of TFSRRPKTRV [CD226, Q15762], the pKd is reported as “below the threshold”.

Each binder was assayed against T3, DVL3, Q92997 (assay: holdup assay). Details: plain residues with an end cap or a label only (N-terminal biotin on a linker: ado-ado).
T3 sequence (Q92997 244-331, limits assumed, looked up): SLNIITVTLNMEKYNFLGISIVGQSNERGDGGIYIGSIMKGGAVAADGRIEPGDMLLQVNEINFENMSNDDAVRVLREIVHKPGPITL
Parameters: key: below the threshold = too weak to quantify, mostly under pKd 3.1 to 4
For TFSRRPKTRV [CD226, Q15762], the pKd was “below the threshold”.

The binders below were run against FRMPD2_1, Q68DX3 (assay: holdup assay). Details: plain residues with an end cap or a label only (N-terminal biotin on a linker: ado-ado).
Chain of FRMPD2_1, Q68DX3 (Q68DX3 770-861): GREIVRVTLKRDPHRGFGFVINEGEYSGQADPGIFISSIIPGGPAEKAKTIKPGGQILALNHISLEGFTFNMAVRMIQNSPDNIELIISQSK
Parameters: key: below the threshold = too weak to quantify, mostly under pKd 3.1 to 4
In the case of TFSRRPKTRV [CD226, Q15762], the pKd is reported as 3.73.

Each binder was assayed against GOPC, Q9HD26 (assay: holdup assay). Details: plain residues with an end cap or a label only (N-terminal biotin on a linker: ado-ado).
Parameters: key: below the threshold = too weak to quantify, mostly under pKd 3.1 to 4
Work on TFSRRPKTRV [CD226, Q15762] yielded a pKd of 4.56.

These binders were tested against GORASP2, Q9H8Y8 (assay: holdup assay). Details: plain residues with an end cap or a label only (N-terminal biotin on a linker: ado-ado).
Parameters: key: below the threshold = too weak to quantify, mostly under pKd 3.1 to 4
Binder TFSRRPKTRV [CD226, Q15762] has a pKd of 3.87.

These binders were tested against GRASP, Q7Z6J2 (assay: holdup assay). Details: plain residues with an end cap or a label only (N-terminal biotin on a linker: ado-ado).
Chain of GRASP, Q7Z6J2 (Q7Z6J2 96-193): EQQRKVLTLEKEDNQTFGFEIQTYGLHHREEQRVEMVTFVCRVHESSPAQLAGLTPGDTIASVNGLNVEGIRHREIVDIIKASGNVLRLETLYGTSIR
Parameters: key: below the threshold = too weak to quantify, mostly under pKd 3.1 to 4
TFSRRPKTRV [CD226, Q15762] showed a pKd of 3.98.

The binders below were run against GRID2IP_1, A4D2P6 (assay: holdup assay). Details: plain residues with an end cap or a label only (N-terminal biotin on a linker: ado-ado).
Chain of GRID2IP_1, A4D2P6 (A4D2P6 1-87): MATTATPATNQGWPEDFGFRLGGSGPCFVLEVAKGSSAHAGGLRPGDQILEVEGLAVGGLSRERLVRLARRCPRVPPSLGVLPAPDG
Parameters: key: below the threshold = too weak to quantify, mostly under pKd 3.1 to 4
TFSRRPKTRV [CD226, Q15762] was tested, and the pKd was “below the threshold”.

Each binder was assayed against Inadl_1, Q8NI35 (assay: holdup assay). Details: plain residues with an end cap or a label only (N-terminal biotin on a linker: ado-ado).
Chain of Inadl_1, Q8NI35 (Q8NI35 113-229): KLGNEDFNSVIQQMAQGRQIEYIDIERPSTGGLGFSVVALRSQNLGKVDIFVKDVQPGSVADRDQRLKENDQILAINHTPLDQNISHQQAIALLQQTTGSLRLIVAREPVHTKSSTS
Parameters: key: below the threshold = too weak to quantify, mostly under pKd 3.1 to 4
TFSRRPKTRV [CD226, Q15762] was tested, and the pKd was “below the threshold”.

These binders were tested against Inadl_10, Q8NI35 (assay: holdup assay). Details: plain residues with an end cap or a label only (N-terminal biotin on a linker: ado-ado).
Chain of Inadl_10, Q8NI35 (Q8NI35 1673-1763): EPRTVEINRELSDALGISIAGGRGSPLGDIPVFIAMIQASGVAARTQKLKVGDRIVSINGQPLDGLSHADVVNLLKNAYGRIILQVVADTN
Parameters: key: below the threshold = too weak to quantify, mostly under pKd 3.1 to 4
With TFSRRPKTRV [CD226, Q15762] the pKd was “below the threshold”.

These binders were tested against Inadl_5, Q8NI35 (assay: holdup assay). Details: plain residues with an end cap or a label only (N-terminal biotin on a linker: ado-ado).
Chain of Inadl_5, Q8NI35 (Q8NI35 673-780): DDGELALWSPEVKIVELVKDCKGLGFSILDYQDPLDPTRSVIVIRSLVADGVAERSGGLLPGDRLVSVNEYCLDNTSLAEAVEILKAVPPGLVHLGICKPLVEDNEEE
Parameters: key: below the threshold = too weak to quantify, mostly under pKd 3.1 to 4
With TFSRRPKTRV [CD226, Q15762] the pKd was “below the threshold”.

What follows are binders tested against Inadl_9, Q8NI35 (assay: holdup assay). Details: plain residues with an end cap or a label only (N-terminal biotin on a linker: ado-ado).
Chain of Inadl_9, Q8NI35 (Q8NI35 1530-1615): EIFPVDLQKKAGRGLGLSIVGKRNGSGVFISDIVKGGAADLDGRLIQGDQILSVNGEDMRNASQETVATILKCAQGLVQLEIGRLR
Parameters: key: below the threshold = too weak to quantify, mostly under pKd 3.1 to 4
TFSRRPKTRV [CD226, Q15762] was tested, and the pKd was “below the threshold”.

The binders below were run against T4, LIN7A, O14910 (assay: holdup assay). Details: plain residues with an end cap or a label only (N-terminal biotin on a linker: ado-ado).
T4 sequence (O14910 103-200, limits assumed, looked up): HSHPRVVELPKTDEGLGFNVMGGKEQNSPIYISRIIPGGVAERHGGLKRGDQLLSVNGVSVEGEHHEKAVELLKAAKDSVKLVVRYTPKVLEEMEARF
Parameters: key: below the threshold = too weak to quantify, mostly under pKd 3.1 to 4
TFSRRPKTRV [CD226, Q15762] was tested, and the pKd was “below the threshold”.

Each binder was assayed against T5, LIN7B, Q9HAP6 (assay: holdup assay). Details: plain residues with an end cap or a label only (N-terminal biotin on a linker: ado-ado).
T5 sequence (Q9HAP6 88-185, limits assumed, looked up): T4 sequence (O14910 103-200, limits assumed, looked up) with S2A, V20I, I35V, E42D, H65Q, K77Q, D78G, K89R
Parameters: key: below the threshold = too weak to quantify, mostly under pKd 3.1 to 4
In the case of TFSRRPKTRV [CD226, Q15762], the pKd is reported as “below the threshold”.

Each binder was assayed against LNX1_1, Q8TBB1 (assay: holdup assay). Details: plain residues with an end cap or a label only (N-terminal biotin on a linker: ado-ado).
Chain of LNX1_1, Q8TBB1 (Q8TBB1 261-371): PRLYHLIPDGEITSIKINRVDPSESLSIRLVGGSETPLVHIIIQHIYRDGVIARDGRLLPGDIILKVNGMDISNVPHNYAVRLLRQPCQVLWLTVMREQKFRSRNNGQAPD
Parameters: key: below the threshold = too weak to quantify, mostly under pKd 3.1 to 4
TFSRRPKTRV [CD226, Q15762] was tested, and the pKd was 3.9.

What follows are binders tested against MAGI2_2, Q86UL8 (assay: holdup assay). Details: plain residues with an end cap or a label only (N-terminal biotin on a linker: ado-ado).
Chain of MAGI2_2, Q86UL8 (Q86UL8 410-522): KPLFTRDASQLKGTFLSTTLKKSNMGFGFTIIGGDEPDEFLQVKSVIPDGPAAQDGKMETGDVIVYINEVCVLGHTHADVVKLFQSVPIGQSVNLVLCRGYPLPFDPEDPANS
Parameters: key: below the threshold = too weak to quantify, mostly under pKd 3.1 to 4
TFSRRPKTRV [CD226, Q15762] was tested, and the pKd was 5.31.

What follows are binders tested against MAGI2_6, Q86UL8 (assay: holdup assay). Details: plain residues with an end cap or a label only (N-terminal biotin on a linker: ado-ado).
Chain of MAGI2_6, Q86UL8 (Q86UL8 1141-1229): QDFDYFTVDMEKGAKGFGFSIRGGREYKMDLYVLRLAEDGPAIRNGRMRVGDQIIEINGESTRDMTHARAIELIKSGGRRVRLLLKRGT
Parameters: key: below the threshold = too weak to quantify, mostly under pKd 3.1 to 4
In the case of TFSRRPKTRV [CD226, Q15762], the pKd is reported as “below the threshold”.

Each binder was assayed against MAST2, Q6P0Q8 (assay: holdup assay). Details: plain residues with an end cap or a label only (N-terminal biotin on a linker: ado-ado).
Chain of MAST2, Q6P0Q8 (Q6P0Q8 1099-1202): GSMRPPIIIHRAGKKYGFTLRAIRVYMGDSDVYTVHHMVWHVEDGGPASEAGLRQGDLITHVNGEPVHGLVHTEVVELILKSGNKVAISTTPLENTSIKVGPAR
Parameters: key: below the threshold = too weak to quantify, mostly under pKd 3.1 to 4
Work on TFSRRPKTRV [CD226, Q15762] yielded a pKd of 4.1.

The binders below were run against T6, MPDZ_12, O75970 (assay: holdup assay). Details: plain residues with an end cap or a label only (N-terminal biotin on a linker: ado-ado).
T6 sequence (O75970 1857-1958, limits assumed, looked up): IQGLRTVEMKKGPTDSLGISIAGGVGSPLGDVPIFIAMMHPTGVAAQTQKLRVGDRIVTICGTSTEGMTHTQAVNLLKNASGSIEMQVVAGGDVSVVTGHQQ
Parameters: key: below the threshold = too weak to quantify, mostly under pKd 3.1 to 4
With TFSRRPKTRV [CD226, Q15762] the pKd was “below the threshold”.

The binders below were run against NHERF2_2, Q15599 (assay: holdup assay). Details: plain residues with an end cap or a label only (N-terminal biotin on a linker: ado-ado).
Chain of NHERF2_2, Q15599 (Q15599 142-238): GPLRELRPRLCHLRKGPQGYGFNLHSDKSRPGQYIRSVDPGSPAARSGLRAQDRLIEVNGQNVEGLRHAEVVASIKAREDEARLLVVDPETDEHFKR
Parameters: key: below the threshold = too weak to quantify, mostly under pKd 3.1 to 4
With TFSRRPKTRV [CD226, Q15762] the pKd was “below the threshold”.

The binders below were run against NHERF4_4, Q86UT5 (assay: holdup assay). Details: plain residues with an end cap or a label only (N-terminal biotin on a linker: ado-ado).
Chain of NHERF4_4, Q86UT5 (Q86UT5 464-550): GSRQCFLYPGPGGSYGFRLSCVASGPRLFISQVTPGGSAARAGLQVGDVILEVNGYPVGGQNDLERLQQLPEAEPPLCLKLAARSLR
Parameters: key: below the threshold = too weak to quantify, mostly under pKd 3.1 to 4
In the case of TFSRRPKTRV [CD226, Q15762], the pKd is reported as “below the threshold”.

These binders were tested against T7, PCLO, Q9Y6V0 (assay: holdup assay). Details: plain residues with an end cap or a label only (N-terminal biotin on a linker: ado-ado).
T7 sequence (Q9Y6V0 4491-4600, limits assumed, looked up): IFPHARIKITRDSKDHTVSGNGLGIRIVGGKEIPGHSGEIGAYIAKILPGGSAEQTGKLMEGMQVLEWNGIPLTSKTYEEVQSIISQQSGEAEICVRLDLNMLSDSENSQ
Parameters: key: below the threshold = too weak to quantify, mostly under pKd 3.1 to 4
With TFSRRPKTRV [CD226, Q15762] the pKd was “below the threshold”.

These binders were tested against T8, PTPN13_1, Q12923 (assay: holdup assay). Details: plain residues with an end cap or a label only (N-terminal biotin on a linker: ado-ado).
T8 sequence (Q12923 1088-1188, limits assumed, looked up): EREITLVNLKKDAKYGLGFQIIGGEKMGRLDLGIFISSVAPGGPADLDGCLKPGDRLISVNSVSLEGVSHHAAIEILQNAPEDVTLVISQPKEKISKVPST
Parameters: key: below the threshold = too weak to quantify, mostly under pKd 3.1 to 4
For TFSRRPKTRV [CD226, Q15762], the pKd was “below the threshold”.

The binders below were run against T9, SHANK1, Q9Y566 (assay: holdup assay). Details: plain residues with an end cap or a label only (N-terminal biotin on a linker: ado-ado).
T9 sequence (Q9Y566 658-767, limits assumed, looked up): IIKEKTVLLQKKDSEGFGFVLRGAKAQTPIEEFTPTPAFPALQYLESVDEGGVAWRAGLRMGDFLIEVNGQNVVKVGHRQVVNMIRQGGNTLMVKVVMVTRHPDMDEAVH
Parameters: key: below the threshold = too weak to quantify, mostly under pKd 3.1 to 4
TFSRRPKTRV [CD226, Q15762] was tested, and the pKd was 4.06.

These binders were tested against T10, TX1BP3, O14907 (assay: holdup assay). Details: plain residues with an end cap or a label only (N-terminal biotin on a linker: ado-ado).
T10 sequence (O14907 10-122, limits assumed, looked up): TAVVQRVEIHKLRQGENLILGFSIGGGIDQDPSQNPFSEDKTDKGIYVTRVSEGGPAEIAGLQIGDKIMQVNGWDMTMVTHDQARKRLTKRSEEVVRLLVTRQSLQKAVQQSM
Parameters: key: below the threshold = too weak to quantify, mostly under pKd 3.1 to 4
TFSRRPKTRV [CD226, Q15762] was tested, and the pKd was “below the threshold”.
